Assay results reported in US20240269307A1 (JIANGSU HENGRUI PHARMACEUTICALS, published 2024).
Each block holds one binder with its values, some of them ahead of it.

What was measured:
[1] = molecular target: T1, human Nectin-4 expressed on cells (Nectin4-CHOK1, T47D, MDA-MB-468) (human, UniProt Q96NY8 32-510); experiment: cell-based or functional assay
T1 sequence: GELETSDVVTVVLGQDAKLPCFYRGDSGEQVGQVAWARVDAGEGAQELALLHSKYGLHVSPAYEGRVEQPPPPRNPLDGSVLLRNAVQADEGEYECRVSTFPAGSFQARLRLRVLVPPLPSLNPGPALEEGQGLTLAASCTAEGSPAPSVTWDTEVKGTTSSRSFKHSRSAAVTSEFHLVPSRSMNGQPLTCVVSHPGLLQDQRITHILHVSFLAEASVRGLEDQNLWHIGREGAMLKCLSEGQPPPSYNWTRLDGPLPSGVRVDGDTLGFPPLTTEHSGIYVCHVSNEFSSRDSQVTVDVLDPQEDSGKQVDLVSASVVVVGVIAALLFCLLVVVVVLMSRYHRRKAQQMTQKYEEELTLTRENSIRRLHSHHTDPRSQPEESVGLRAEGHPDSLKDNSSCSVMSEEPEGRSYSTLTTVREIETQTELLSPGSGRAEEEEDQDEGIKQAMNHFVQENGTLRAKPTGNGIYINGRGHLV

[2] = molecular target: T1, human Nectin-4 expressed on cells …; experiment: cell-based or functional assay; remark: listed apart in the source

B1: ADC-1 (NEC49-9-A) (antibody, V domains shown)
VH: EVQLLESGGGLVQPGGSLRLSCAASGFTFSSYAMSWVRQAPGKGLEWVSAIYSGGSTYYADSVKGRFTISRDNSKNTLYLQMNSLRAEDTAVYYCTRHGGDSGSWSYYYYGMDVWGQGTTVTVSS
VL: not shown
modifications: compound 9-A (exatecan analog linker-drug) coupled to cysteine sulfhydryls after TCEP reduction; average loading n=4.90 for the whole antibody; positions not given
IC50(nM), killing of MDA-MB-468 (++) cells, CTG, 6 days [1]: 87.5 nM
IC50(nM), killing of T47D (+++) cells, CTG, 6 days [1]: 111 nM

B3: ADC-2 (EV201-9-A) (antibody, human IgG1, kappa, V domains shown)
VH: EVQLVESGGGLVQPGGSLRLSCAASGFTFSSYNMNWVRQAPGKGLEWVSYISSSSSTIYYADSVKGRFTISRDNAKNSLSLQMNSLRDEDTAVYYCARAYYYGMDVWGQGTTVTVSS
VL: DIQMTQSPSSVSASVGDRVTITCRASQGISGWLAWYQQKPGKAPKFLIYAASTLQSGVPSRFSGSGSGTDFTLTISSLQPEDFATYYCQQANSFPPTFGGGTKVEIKR
modifications: compound 9-A (exatecan analog linker-drug) coupled to cysteine sulfhydryls after TCEP reduction; average loading n=3.90 for the whole antibody; positions not given
IC50(nM), killing of MDA-MB-468 (++) cells, CTG, 6 days [1]: 152 nM
IC50(nM), killing of T47D (+++) cells, CTG, 6 days [1]: 193 nM

More lines, now with the values ahead:

IC50 (nM), DT3C antibody endocytosis assay on Nectin4-CHOK1 cells [2]: 0.43 nM
B2: fully human antibody molecule NEC49 (antibody, V domains shown)
VH: B1 VH
VL: not shown

IC50 (nM), DT3C antibody endocytosis assay on Nectin4-CHOK1 cells [2]: 0.5 nM
B4: positive control antibody EV201 (antibody, human IgG1, kappa, V domains shown)
VH: B3 VH
VL: B3 VL
